The target of the data set is SARS-CoV-2 N-NTD (WT) (SARS-CoV-2, UniProt P0DTC9 41-174). The data set can be described thus: SPR. (In general: Surface plasmon resonance follows binding to a sensor surface in real time, without labels.)

For one molecule, Kd results are on record in PMC7194921.

As for AAGUUCGUUU (ssRNA) [viral RNA derived intergenic sequence], binding was characterised by a dissociation constant (Kd) of 140 µM.

The term Kd denotes a measure of binding affinity in units of concentration.
